Laboratory results published in patent US6884597B1, “Method for detecting acetyltransferase and deacetylase activities and method for screening inhibitors or enhancers of these enzymes” (Medical & Biological Laboratories, Co., Ltd., priority 1998, dated 2005).

System: sub p53-1 and sub p53-2 peptides
Experiment: ELISA system for measuring the deacetylase activity (liquid and solid phase)
Assay type: biochemical, human
Settings: 0 to 10 μg/ml; liquid and solid phases; depending on the concentration; FIGS. 11 and 12
Protocol: Two peptide substrates “Sub Ac p53-1” (SEQ ID NO: 17/Bio-STSRHKK(Ac)LMFKTE and “Sub Ac p53-2” (SEQ ID NO: 18/Bio-SHLKSKK (Ac) GQSTSR) in which an acetyl group was introduced into the ε amino group on the 373rd and 382nd lysine residues of human p53, were prepared by a peptide synthesizer. An amino acid in a peptide is shown by the one-letter code and “Bio” at the amino ends means biotin. K(Ac) indicates an acetylated lysine residue. Ninety percent or higher purity of the synthesized peptides was confirmed by HPLC. “Sub Ac p53-1” and “Sub Ac p53-2” were composed of amino acid residues 376 to 388 and 367 to 379, of human p53, respectively.
Two peptides substrate were dissolved in PBS to 10 μg/ml. 50 μl of each peptide solution were added to each well on a microtiter plate for ELISA, and sensitized at 4° C. overnight. […]
The synthesized peptide substrates and the recombinant deacetylase were reacted in the liquid phase, and the enzyme activity was measured by ELISA system using a microtiter plate. […] 100 μl of 1.5 N phosphate solution were added thereto to terminate the coloring reaction, and absorbance at 450 nm was measured using a microtiter plate reader. • Solid Phase Analysis System (Refer to FIG. 4) […]

## recombinant HDAC1: recombinant deacetylase HDAC1/RPD3 (full length) purified from E. coli
  deacetylase activities in sub p53-1 and sub p53-2 peptides: detected
